From PMC3360062

Substrate: C[C@H](N)C(=O)O
Experiment: purified protein
Conditions: 0.5 mM ATP, 10 mM MgCl2, 50 mM Tris-HCl pH 7.5, 25°C, 0.25 µM enzyme, 5 min, alanine 0.1-0.5 mM

B1: Sare0718 (Salinispora arenicola) (protein)
chain: QRTSTTTTAETTTSTRATGRTNLPASPYPIHPPEPLATLSPRDRALFVRFGYGPTESVAHTHIHHAFEYWATVTPEAVAVEDGDETITYRELDQRADQLAARLAASGVRPGDRVALFVRRSIPMVVGLLAALKAGAAYVPQHVDTVPPAQLQHVIHTADTRVIMTLAATADRIPVPDGHVVITLDDLGKTEPTDLIAGRFTPATPLPPDSPCYVLFTSGSTGRPNGVVVTHRNICNILLTSPGNLGIQPGWKVGQILNIAFDMASWEILGALSHGATLVIRGSDIVETMSRVDVIIATPTVLSRTDPDRCQRVKVVAVAGEPCPRALADAWSAVCAFYNACGPTETTIVNTMSRHRPTAERLTIGRPTPNNTVYVLDADLRPCPIGTVGEMWAGGDCVSAGYLSNARLTAERYALDPFLGHGRLMFRTRDLGRWTPDGELEHFGRTDDQVKVRGFRVELDSVSAILEAVPGCTRAATIKLDDRSLVSFVAPAEVDPDLARMAVSEALPYYCVPETVHTLPELPTTSRGKIDKLALRRLVTRQDQLVTSQEQGATR
Work on B1 yielded a Km of 116.4 ± 15.9 µM and a kcat of 0.209893 ± 0.00852 s⁻¹.
